Reference: US20080138847A1, “Bcl-2 family member and BH-3 only proteins for use in development of peptidomimetics” (priority 2004, published 2008)
Substitutions are numbered along the chain they refer to. Names may count otherwise. “Also recorded” adds a separate entry of the source. Where no end group is shown, it is not given here.

T1: CED-4/CED-9 complex (Caenorhabditis elegans, UniProt P41958)
T1 sequence (P41958 1-251 limits assumed): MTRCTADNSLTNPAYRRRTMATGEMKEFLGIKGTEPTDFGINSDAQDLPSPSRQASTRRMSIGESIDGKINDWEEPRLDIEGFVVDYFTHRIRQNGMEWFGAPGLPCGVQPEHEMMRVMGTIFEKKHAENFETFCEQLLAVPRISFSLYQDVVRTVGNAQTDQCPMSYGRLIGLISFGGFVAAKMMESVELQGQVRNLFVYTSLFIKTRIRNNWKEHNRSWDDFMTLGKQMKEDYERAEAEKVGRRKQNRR

T2: CED-9 protein (residues 1-251) (Caenorhabditis elegans, UniProt P41958)
T2 construct: made in house
T2 sequence (P41958 1-251): T1 sequence (P41958 1-251 limits assumed)

T3: CED-9 (residues 68-251) (Caenorhabditis elegans, UniProt P41958 68-251)
T3 construct: range 68-251; Form used in isothermal titration calorimetry
T3 sequence (looked up): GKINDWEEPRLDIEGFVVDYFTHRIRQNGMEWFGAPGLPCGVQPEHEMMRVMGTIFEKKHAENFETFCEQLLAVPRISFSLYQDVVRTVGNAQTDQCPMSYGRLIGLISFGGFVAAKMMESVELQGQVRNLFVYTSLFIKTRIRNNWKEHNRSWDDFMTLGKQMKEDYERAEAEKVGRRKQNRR

T4: CED-4 (Caenorhabditis elegans, UniProt P30429)
T4 sequence (P30429 1-549): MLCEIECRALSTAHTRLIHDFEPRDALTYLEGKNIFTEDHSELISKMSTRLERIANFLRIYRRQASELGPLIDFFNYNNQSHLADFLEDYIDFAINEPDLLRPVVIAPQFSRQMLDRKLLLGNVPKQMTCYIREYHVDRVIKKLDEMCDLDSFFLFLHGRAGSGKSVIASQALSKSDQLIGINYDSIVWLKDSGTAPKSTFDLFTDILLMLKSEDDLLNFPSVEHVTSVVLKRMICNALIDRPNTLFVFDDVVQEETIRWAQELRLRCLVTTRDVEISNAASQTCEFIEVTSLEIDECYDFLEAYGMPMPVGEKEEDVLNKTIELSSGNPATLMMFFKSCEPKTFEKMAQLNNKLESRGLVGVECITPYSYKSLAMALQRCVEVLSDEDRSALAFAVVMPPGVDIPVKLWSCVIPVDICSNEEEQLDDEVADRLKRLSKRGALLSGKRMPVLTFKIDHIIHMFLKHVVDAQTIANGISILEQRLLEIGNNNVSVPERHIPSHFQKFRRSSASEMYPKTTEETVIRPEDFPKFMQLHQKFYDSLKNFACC

B1: wild-type EGL-1 protein (residues 1-87): wild-type EGL-1 residues 1-87, lacking the four C-terminal hydrophobic residues (protein)
chain: MSNVFDVQSSVFYNEKNMFYSSSQDFSSCEDSSQFADDSGFFDDSEISSIGYEIGSKLAAMCDDFDAQMMSYSAHASDRSLFHRLLD
B2: G55E: EGL-1 mutant, Gly55 substituted by glutamate (protein, UniProt O61667 1-106, looked up, variant G55E)
Programmed cell death …: MLMLTFASTSSDLLPMSNVFDVQSSVFYNEKNMFYSSSQDFSSCEDSSQFADDSEFFDDSEISSIGYEIGSKLAAMCDDFDAQMMSYSAHASDRSLFHRLLDFFAF
B3: F146N: CED-9 mutant F146N (protein)
chain: T1 sequence (P41958 1-251 limits assumed) with F146N
B4: R211E/N212G: CED-9 mutant R211E/N212G (protein)
chain: T1 sequence (P41958 1-251 limits assumed) with R211E, N212G
B5: N158A/A159G/Q160A: CED-9 mutant N158A/A159G/Q160A (protein)
chain: T1 sequence (P41958 1-251 limits assumed) with N158A, A159G, Q160A

Assays:
CED-4/CED-9 complex = molecular target: T1, CED-4/CED-9 complex; assay: CED-4 displacement assay (pre-assembled CED-4/CED-9 complex on glutathione resin challenged with EGL-1 fragments); type: biochemical, C. elegans; conditions: in vitro, remaining complex visualized on SDS polyacrylamide gel
Text: EGL-1 induces apoptosis by displacing CED-4 from the CED-4/CED-9 complex. To recapitulate this finding in vitro, a CED-4 displacement assay was designed in which pre-assembled CED-4/CED-9 complex was immobilized on glutathione resin and was then challenged with various EGL-1 fragments. After extensive washing, the remaining CED-4/CED-9 complex was eluted from the resin and visualized on SDS polyacrylamide gel. […] In contrast, most missense mutations at the EGL-1/CED-9 interface weakened the ability of EGL-1 to displace CED-4 from the CED-4/CED-9 complex. […] The in vitro studies are in complete agreement with the structural observation.

[1] = tested on: ced-1 (e1735); egl-1 (n1084 n3082) animals; assay: in vivo cell killing: cell corpses in four-fold transgenic embryos after heat-shock expression of EGL-1 fragments; parameters: species or system C. elegans; conditions: anterior head region of four-fold transgenic embryos; heat-shock promoter expression
Procedure: In this example, the ability of EGL-1 mutants to disrupt the CED-4/CED-9 complex was tested. […] To examine this scenario, constructs were injected into ced-1 (e1735); egl-1 (n1084 n3082) animals that direct expression of various EGL-1 fragments under the control of the C. elegans heat-shock promoters. Cell corpses were scored in the anterior head region of four-fold transgenic embryos after the heat-shock treatment.

[2] = molecular target: T2, CED-9 protein (residues 1-251); assay: GST-EGL-1 fragment/mutant interaction with CED-9 (GST-mediated pull-down assay); type: binding, C. elegans; conditions: GST-EGL-1 fragments or mutants, in vitro
Procedure: This example describes the characterization of EGL-1/CED-9 interactions. To determine the mechanism of CED-9 recognition by EGL-1, the EGL-1/CED-9 interaction was characterized. Various fragments of the GST-EGL-1 protein were evaluated for their abilities to interact with the CED-9 protein (residues 1-251).
To further characterize EGL-1/CED-9 interactions, a number of missense mutations were introduced into EGL-1 and the ability of the resulting EGL-1 mutants to interact with CED-9 was determined.
This example describes the biochemical and functional analysis of EGL-1/CED-9 interactions. To corroborate the structural analysis, mutations on the interface residues of EGL-1 were examined for their potential to weaken or disrupt its binding to CED-9. Various mutant EGL-1 fragments were purified as fusion proteins with glutathione S-transferase (GST) and their interactions with CED-9 were investigated using a GST-mediated pull-down assay.

CED-9 (residues 68-251) = molecular target: T3, CED-9 (residues 68-251); assay: isothermal titration calorimetry (ITC)
Text: The EGL-1/CED-9 complex adopts a compact, globular fold, resembling a single folding unit. CED-9 comprises 7 α helices, with the central hydrophobic helix α5 surrounded by 6 helices and several surface loops. A 27-amino acid fragment of the EGL-1 protein (residues 47-73) forms a single amphipathic α helix, packing against CED-9 helices α2, α3, α4, α5, and α7 over an extended hydrophobic surface cleft. Residues N- or C-terminal to the EGL-1 helix were disordered in the crystals and thus are not involved in binding to CED-9.

CED-4 = molecular target: T4, CED-4; assay: interaction of CED-9 surface mutants with CED-4; type: binding, C. elegans; conditions: purified CED-9 mutant proteins
Procedure: This example describes the biochemical analysis of CED-4/CED-9 interactions. To further define the molecular mechanisms by which EGL-1 induces the release of CED-4 from CED-9-mediated sequestration, the identify of surface residues in CED-9 that are important for binding to CED-4 was analyzed. It was hypothesized that for molecular recognition to occur, at least some of the CED-9 residues that are important for binding to CED-4 must be solvent-exposed prior to binding. Therefore, the structure of CED-9 in isolation was examined and a total of 44 amino acids were identified, each with at least 30% of its surface area exposed to solvent. These 44 amino acids were grouped based on primary sequences and 20 CED-9 mutant clones were generated, each containing 1-5 missense mutations that together covering all 44 solvent-exposed residues. All 20 CED-9 proteins were cloned into an expression vector and over-expressed in E. coli and purified to homogeneity.
Next, the abilities of these CED-9 mutants to interact with CED-4 was examined. […] This surface patch may constitute the primary CED-4-binding motif. None of the other 16 mutations, which cover the entirety of the CED-9 surface, affected the CED-4/CED-9.

[3] = listed as EGL-1 double mutant (G55E/F65A)

Molecule | ability to displace CED-4 from the CED-4/CED-9 complex (CED-4/CED-9 complex) | cell killing (cell corpses induced) [1] | interaction with (binding to) CED-9 [2] | further results
C-terminal half of EGL-1 (amino acids 45-87): C-terminal half of EGL-1, residues 45-87 (SEISSIGYEIGSKLAAMCDDFDAQMMSYSAHASDRSLFHRLLD) | completely displaced CED-4 | necessary and sufficient | necessary and sufficient; also recorded: formed a stable complex | –
C-terminal half of EGL-1 (residues 45-91): C-terminal half of EGL-1, residues 45-91 (EDSSQFADDSGFFDDSEISSIGYEIGSKLAAMCDDFDAQMMSYSAHA; UniProt O61667 45-91, looked up, fragment) | – | – | formed a stable complex | –
EGL-1 C-terminal fragment (residues 46-87): EGL-1 C-terminal fragment residues 46-87 expressed in vivo (DSSQFADDSGFFDDSEISSIGYEIGSKLAAMCDDFDAQMMSY; UniProt O61667 46-87, looked up, fragment) | – | about half the number of cell corpses as the full-length EGL-1 | – | –
L58A: EGL-1 mutant, Leu58 substituted by Ala (SEISSIGYEIGSKAAAMCDDFDAQMMSYSAHASDRSLFHRLLD; not fully specified) | significantly reduced ability | – | did not significantly affect its interaction with CED-9; also recorded: retaining their ability to bind to CED-9 | –
N-terminal half (residues 1-45) of EGL-1: N-terminal half of EGL-1, residues 1-45 (MSNVFDVQSSVFYNEKNMFYSSSQDFSSCEDSSQFADDSGFFDDS; not fully specified) | – | did not induce cell death | did not show detectable binding | –
full-length EGL-1 protein (from UniProt O61667 16-106) | – | – | – | Kd (CED-9 (residues 68-251)): 6.7 nM
mut2: EGL-1 double mutant G55E/F65A (SEISSIGYEIESKLAAMCDDADAQMMSYSAHASDRSLFHRLLD; not fully specified) | completely failed to disrupt the CED-4/CED-9 complex | induced no cell killing | failed to bind to CED-9 | ability to displace CED-4 from the CED-4/CED-9 complex (CED-4/CED-9 complex; [3]): failed to bind to CED-9 or to displace CED-4; interaction with (binding to) CED-9 [2, 3]: failed to bind to CED-9; interaction with (binding to) CED-9 ([2]; listed as G55E and F65A): completely abolished its interaction with CED-9
mut4: EGL-1 quadruple mutant G55E/L58A/F65A/M69A (SEISSIGYEIESKAAAMCDDADAQAMSYSAHASDRSLFHRLLD; also: fused to a dimerising Fc or GST (left off)) | completely failed to disrupt the CED-4/CED-9 complex | – | failed to bind to CED-9 | –
SSIGYEIGSKLAAMCDDFDAQMMSY (peptide, UniProt O61667 63-87, looked up, range 63-87; Used in ITC) [EGL-1 fragment (residues 48-72)] | – | – | – | Kd (CED-9 (residues 68-251)): 6.4 nM
B1 | completely displaced CED-4 | – | – | –
B2 | significantly reduced ability | significantly lower level than that of the wild-type EGL-1 protein | not sufficient to abolish interaction with CED-9; also recorded: retaining their ability to bind to CED-9 | ability to displace CED-4 from the CED-4/CED-9 complex (CED-4/CED-9 complex; listed as EGL-1 (G55E)): decreased ability to disrupt the CED-4/CED-9 complex; interaction with (binding to) CED-9 ([2]; listed as EGL-1 (G55E)): retained its ability to interact with CED-9
B3 | – | – | – | interaction with CED-4 (CED-4): significantly weakened interactions with CED-4
B4 | – | – | – | interaction with CED-4 (CED-4): significantly weakened interactions with CED-4
B5 | – | – | – | interaction with CED-4 (CED-4): significantly weakened interactions with CED-4
